One molecule from patent US20030083469, “Allosteric control of nuclear hormone receptors” (The Salk Institute for Biological Studies, published 2003) can be followed below.

For this data set, the target named is GAL4 DBD-RXRalpha LBD (Saccharomyces cerevisiae / Homo sapiens, UniProt P04386;P19793 P04386:1-147,P19793:203-462). In words: cell_activity; fold response to 100 nM LG69; 4 copies UASG TK-LUC, CV-1 cells. As to conditions: tags: GAL4 DBD (1-147) N-terminal fusion.
Sequence of GAL4 DBD-RXRalpha LBD (P04386 1-147, chain 1 of 2): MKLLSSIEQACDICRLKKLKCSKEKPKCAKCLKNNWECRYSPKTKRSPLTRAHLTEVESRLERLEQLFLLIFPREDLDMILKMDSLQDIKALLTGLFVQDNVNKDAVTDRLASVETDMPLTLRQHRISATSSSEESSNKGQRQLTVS
Sequence of GAL4 DBD-RXRalpha LBD (P19793 203-462, chain 2 of 2): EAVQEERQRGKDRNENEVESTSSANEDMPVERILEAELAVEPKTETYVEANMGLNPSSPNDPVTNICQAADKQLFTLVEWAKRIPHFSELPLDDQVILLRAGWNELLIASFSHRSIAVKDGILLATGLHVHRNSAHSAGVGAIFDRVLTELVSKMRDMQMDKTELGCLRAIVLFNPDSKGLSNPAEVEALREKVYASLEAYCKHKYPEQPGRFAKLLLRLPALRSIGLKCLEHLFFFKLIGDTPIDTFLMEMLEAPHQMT

B1: UASG x4 (dsDNA)
DNA 1: CGACGGAGTACTGTCCTCCGAGCT
DNA 2: AGCTCGGAGGACAGTACTCCGTCG
Molecule B1 yielded an activity of 69 fold.
